Reference: publication PMC6588359
Values belong to the substance of their own block, whether it stands above or below them.

What was measured:
amyloid-β40 (Aβ40) [1] = test: native MS; native nano-ESI-IMS-MS, positive ionization; Aβ40 alone or 1:1 mol/mol with Aβ_(16–22); samples incubated 5 min at 37°C without agitation, analysed immediately following mixing
amyloid-β40 (Aβ40) [2] = molecular target: amyloid-β40 (Aβ40)

Substance: Aβ_(16–22)
- percent heterodimers by total ion count (amyloid-β40 (Aβ40) [1]): 1.0 ± 0.5%

- ThT fluorescence: average t1/2 of Aβ40 aggregation with sonicated Aβ (16–22) fibrils (amyloid-β40 (Aβ40) [2]): 6.2 h
- ThT fluorescence: average t1/2 of Aβ40 aggregation with unfragmented (unsonicated) Aβ (16–22) fibrils (amyloid-β40 (Aβ40) [2]): 7.2 h
Substance: Aβ_(16–22) (peptide)

- stoichiometry N (amyloid-β40 (Aβ40) [1]): 1
Substance: amyloid-β40 (Aβ40) (peptide)
